The values below come from publication PMC10954691, “A structure-based designed small molecule depletes hRpn13^Pru and a select group of KEN box proteins” (Nature Communications, 2024).

In this experiment the target is T1, hRpn13 Pru (1-150) (human, UniProt Q16186 1-150).
T1 construct: hRpn13 (proteasome subunit, gene ADRM1), Pru domain, residues 1-150; printed MW 17017.3 g/mol; also called hRpn13 Pru domain
Kind of experiment: 19F NMR of the competing small molecule XL44; 25 or 50 uM hRpn2 (940-953) added to preincubated 50 uM XL44 and equimolar hRpn13 Pru; NMR buffer (20 mM sodium phosphate, 50 mM NaCl, 2 mM DTT, 10% DMSO-d6, pH 6.5), 10 °C. To be noted: both partners purified.

T1 sequence (Q16186 1-150): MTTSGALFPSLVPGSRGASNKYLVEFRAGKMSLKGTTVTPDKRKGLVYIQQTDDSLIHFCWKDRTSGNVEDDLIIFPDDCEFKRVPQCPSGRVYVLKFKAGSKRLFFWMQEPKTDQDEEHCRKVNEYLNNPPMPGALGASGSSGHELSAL

B1: hRpn2 (940-953) (peptide, UniProt Q99460 940-953, looked up)
chain: QEPEPPEPFEYIDD
notes: hRpn2 (proteasome regulatory particle subunit), extreme C-terminus, residues 940-953; also called hRpn2 peptide; not shown: GST, N-terminal, cleaved
Turning to B1, the binding result was “binds”.
